Data taken from IntAct's records for PubMed 17721437.

B1: Dynamin-1-like protein (Rattus norvegicus (Rat)), O35303 (parent)
chain: MEALIPVINKLQDVFNTVGADIIQLPQIVVVGTQSSGKSSVLESLVGRDLLPRGTGVVTRRPLILQLVHVSPEDKRKTTGEENDPATWKNSRHLSKGVEAEEWGKFLHTKNKLYTDFDEIRQEIENETERISGNNKGVSPEPIHLKVFSPNVVNLTLVDLPGMTKVPVGDQPKDIELQIRELILRFISNPNSIILAVTAANTDMATSEALKISREVDPDGRRTLAVITKLDLMDAGTDAMDVLMGRVIPVKLGIIGVVNRSQLDINNKKSVTDSIRDEYAFLQKKYPSLANRNGTKYLARTLNRLLMHHIRDCLPELKTRINVLAAQYQSLLNSYGEPVDDKSATLLQLITKFATEYCNTIEGTAKYIETSELCGGARICYIFHETFGRTLESVDPLGGLNTIDILTAIRNATGPRPALFVPEVSFELLVKRQIKRLEEPSLRCVELVHEEMQRIIQHCSNYSTQELLRFPKLHDAIVEVVTCLLRKRLPVTNEMVHNLVAIELAYINTKHPDFADACGLMNNNIEEQRRNRLARELPSAVSRDKSSKVPSALAPASQEPSPAASAEADGKLIQDNRRETKNVASAGGGIGDGGRIGDGGQEPTTGNWRGMLKTSKAEELLAEEKSKPIPIMPASPQKGHAVNLLDVPVPVARKLSAREQRDCEVIERLIKSYFLIVRKNIQDSVPKAVMHFLVNHVKDTLQSELVGQLYKSSLLDDLLTESEDMAQRRKEAADMLKALQGASQIIAEIRETHLW

Variants of: B1
Conditions: with kapca_rat Prkaca

| Variant | effect of a mutation on the interaction |
| --- | --- |
| S656A | disrupting interaction |
